These are literature values, as cited in patent US8623366B2, “Methods for treating visceral pain by administering antagonist antibodies directed against calcitonin gene-related peptide” (Labrys Biologics, Inc., priority 2009, dated 2014).

Numbering of substitutions follows the chain as printed. Names may count otherwise.

One data set addresses T1, human α-CGRP (Homo sapiens, UniProt P06881).
T1 sequence (P06881 83-119 limits assumed): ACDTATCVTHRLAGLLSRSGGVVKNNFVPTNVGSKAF
To be noted: Table 6 reproduced from WO2007/054809; cited from earlier work.

The next data set addresses T2, α-rat CGRP (Rattus norvegicus, UniProt P01256).
T2 sequence (P01256 83-119 limits assumed): T1 sequence (P06881 83-119 limits assumed) with A1S, D3N, N25D, K35E
The settings on record: Table 6 reproduced from WO2007/054809; cited from earlier work.

Consider “M2: G1 variant: HC-FW3 L99A A100R [Clone M2]”, for which the dissociation constant (Kd) (usually the free concentration of one partner at which half of the binding sites on the other are occupied at equilibrium, for simple one-to-one binding) in the data set with human α-CGRP was 3 nM; in the data set with α-rat CGRP it was 58 nM.

For “M8: G1 variant: HC-FW3 L99N A100G [Clone M8]”, the results for the Kd in the data set with human α-CGRP and with α-rat CGRP were 0.58 nM and 41.4 nM, respectively.

Regarding “M10: G1 variant: HC-FW3 L99S A100S [Clone M10]”, the equilibrium dissociation constant (Kd) in the data set with human α-CGRP is 1.08 nM; in the data set with α-rat CGRP, 83.9 nM.

In the case of “M15: G1 variant: HC-FW3 L99T A100P [Clone M15]”, the Kd with human α-CGRP was 0.1 nM; with α-rat CGRP, 63.9 nM.

In the case of “M18: G1 variant: HC-FW3 L99V A100G [Clone M18]”, the equilibrium dissociation constant (Kd) is 0.44 nM in the data set with human α-CGRP and 67.8 nM with α-rat CGRP.

B1: M46: G1 variant: L1 R28N; L2 G50A L56T; H2 E54K A57N S58E H61F; HC-FW3 L99T A100V (antibody, chains of the INN, looked up, variant L:R28N L:G50A L:L56T H:E54K H:A57N H:S58E H:H61F H:L99T H:A100V, V domains shown)
VH: EVQLVESGGGLVQPGGSLRLSCAASGFTFSNYWISWVRQAPGKGLEWVAEIRSKSDNEATFYAEAVKGRFTISRDNAKNSLYLQMNSLRAEDTAVYYCTVYFDYGLAIQNYWGQGTLVTVSS
VL: EIVLTQSPATLSLSPGERATLSCKASKNVTTYVSWYQQKPGQAPRLLIYAASNRYTGIPARFSGSGSGTDFTLTISSLEPEDFAVYYCSQSYNYPYTFGQGTKLEIK
With B1, the Kd with human α-CGRP was 3.37 nM; with α-rat CGRP, 163 nM.

B2: M65: G1 variant: L1 R28N T30G; L2 G50A L56I; H2 E54K A57C; HC-FW3 L99T A100V (antibody, chains of the INN, looked up, variant L:R28N L:T30G L:G50A L:L56I H:E54K H:A57C H:L99T H:A100V, V domains shown)
VH: B1 VH with N57C, E58S, F61H
VL: B1 VL with T30G, T56I
As to B2, the Kd is 5.02 nM with human α-CGRP and 226 nM with α-rat CGRP.

B3: M74: G1 variant: L1 R28N T30G; L2 L56S; H2 E54K A57S; HC-FW3 L99T A100V (antibody, chains of the INN, looked up, variant L:R28N L:T30G L:L56S H:E54K H:A57S H:L99T H:A100V, V domains shown)
VH: B1 VH with N57S, E58S, F61H
VL: B1 VL with T30G, A50G, T56S
As to B3, the dissociation constant (Kd) with human α-CGRP is 3.73 nM; with α-rat CGRP, 335 nM.

B4: M55: G1 variant: L1 R28N T30A; L2 L56S; H2 E54K A57N S58E E64D; HC-FW3 L99T A100V (antibody, chains of the INN, looked up, variant L:R28N L:T30A L:L56S H:E54K H:A57N H:S58E H:E64D H:L99T H:A100V, V domains shown)
VH: B1 VH with F61H, E64D
VL: B1 VL with T30A, A50G, T56S
For B4, the values for the Kd with human α-CGRP and with α-rat CGRP were 2.99 nM and 325 nM, respectively.

B5: M83: G1 variant: L1 R28N T30V; L2 A51H L56T; H2 E54K A57N S58M H61F; HC-FW3 L99T A100V (antibody, chains of the INN, looked up, variant L:R28N L:T30V L:A51H L:L56T H:E54K H:A57N H:S58M H:H61F H:L99T H:A100V, V domains shown)
VH: B1 VH with E58M
VL: B1 VL with T30V, A50G, A51H
B5: in the data set with human α-CGRP, the Kd is 5.83 nM.

B6: M47: G1 variant: L1 R28N; L2 G50A L56T; H2 E54K A57N S58G; HC-FW3 L99T A100V (antibody, chains of the INN, looked up, variant L:R28N L:G50A L:L56T H:E54K H:A57N H:S58G H:L99T H:A100V, V domains shown)
VH: B1 VH with E58G, F61H
VL: B1 VL
On to B6, for which the results for the dissociation constant Kd with human α-CGRP and in the data set with α-rat CGRP were 2.08 nM and 457 nM, respectively.

B7: M51: G1 variant: L1 R28N; L2 L56I; H2 E54K A57G; HC-FW3 L99T A100V (antibody, chains of the INN, looked up, variant L:R28N L:L56I H:E54K H:A57G H:L99T H:A100V, V domains shown)
VH: B1 VH with N57G, E58S, F61H
VL: B1 VL with A50G, T56I
As for B7, the Kd with human α-CGRP is 0.82 nM; in the data set with α-rat CGRP, 65.6 nM.

B8: M67: G1 variant: L1 R28N T30G; L2 L56I; H2 E54K A57F; HC-FW3 L99T A100V (antibody, chains of the INN, looked up, variant L:R28N L:T30G L:L56I H:E54K H:A57F H:L99T H:A100V, V domains shown)
VH: B1 VH with N57F, E58S, F61H
VL: B1 VL with T30G, A50G, T56I
Consider B8, for which the dissociation constant (Kd) was 5.13 nM with human α-CGRP and 95 nM in the data set with α-rat CGRP.

B9: M75: G1 variant: L1 R28N T30G; L2 L56S; H2 E54K A57V; HC-FW3 L99T A100V (antibody, chains of the INN, looked up, variant L:R28N L:T30G L:L56S H:E54K H:A57V H:L99T H:A100V, V domains shown)
VH: B1 VH with N57V, E58S, F61H
VL: B1 VL with T30G, A50G, T56S
For the molecule B9, the Kd with human α-CGRP was 7.25 nM; with α-rat CGRP, 1040 nM.

B10: M84: G1 variant: L1 R28N T30V; L2 A51H L56T; H2 E54N A57N; HC-FW3 L99T A100V (antibody, chains of the INN, looked up, variant L:R28N L:T30V L:A51H L:L56T H:E54N H:A57N H:L99T H:A100V, V domains shown)
VH: B1 VH with K54N, E58S, F61H
VL: B1 VL with T30V, A50G, A51H
Consider B10, for which the dissociation constant (Kd) in the data set with human α-CGRP was 6.75 nM; with α-rat CGRP, 978 nM.

B11: M62: G1 variant: L1 R28N T30G; L2 A51H L56T; H2 E54K A57N S58E; HC-FW3 L99T A100V (antibody, chains of the INN, looked up, variant L:R28N L:T30G L:A51H L:L56T H:E54K H:A57N H:S58E H:L99T H:A100V, V domains shown)
VH: B1 VH with F61H
VL: B1 VL with T30G, A50G, A51H
Regarding B11, the Kd was 5.86 nM with human α-CGRP and 242 nM in the data set with α-rat CGRP.

B12: M49: G1 variant: L1 R28N; L2 G50A L56T; H2 E54K A57N S58Y H61F; HC-FW3 L99T A100V (antibody, chains of the INN, looked up, variant L:R28N L:G50A L:L56T H:E54K H:A57N H:S58Y H:H61F H:L99T H:A100V, V domains shown)
VH: B1 VH with E58Y
VL: B1 VL
In the case of B12, the dissociation constant (Kd) was 3.72 nM with human α-CGRP and 822 nM with α-rat CGRP.

B13: M73: G1 variant: L1 R28N T30G; L2 L56S; H2 E54K A57N S58Y E64D; HC-FW3 L99T A100V (antibody, chains of the INN, looked up, variant L:R28N L:T30G L:L56S H:E54K H:A57N H:S58Y H:E64D H:L99T H:A100V, V domains shown)
VH: B1 VH with E58Y, F61H, E64D
VL: B1 VL with T30G, A50G, T56S
Regarding B13, the Kd in the data set with human α-CGRP was 1.59 nM; with α-rat CGRP, 167 nM.

B14: M78: G1 variant: L1 R28N T30S; L2 G50A L56T; H2 E54K A57N S58T; HC-FW3 L99T A100V (antibody, chains of the INN, looked up, variant L:R28N L:T30S L:G50A L:L56T H:E54K H:A57N H:S58T H:L99T H:A100V, V domains shown)
VH: B1 VH with E58T, F61H
VL: B1 VL with T30S
Regarding B14, the Kd with human α-CGRP was 8.19 nM; with α-rat CGRP, 9280 nM.

B15: M71: G1 variant: L1 R28N T30G; L2 L56I; H2 E54K A57Y; HC-FW3 L99T A100V (antibody, chains of the INN, looked up, variant L:R28N L:T30G L:L56I H:E54K H:A57Y H:L99T H:A100V, V domains shown)
VH: B1 VH with N57Y, E58S, F61H
VL: B1 VL with T30G, A50G, T56I
For B15, in the data set with α-rat CGRP, the Kd is 118 nM.

B16: M77: G1 variant: L1 R28N T30S; L2 G50A L56T; H2 E54K A57D; HC-FW3 L99T A100V (antibody, chains of the INN, looked up, variant L:R28N L:T30S L:G50A L:L56T H:E54K H:A57D H:L99T H:A100V, V domains shown)
VH: B1 VH with N57D, E58S, F61H
VL: B1 VL with T30S
On to B16, for which the equilibrium dissociation constant (Kd) with human α-CGRP was 2.98 nM; with α-rat CGRP, 794 nM.

B17: M69: G1 variant: L1 R28N T30G; L2 L56I; H2 E54K A57N S58E; HC-FW3 L99T A100V (antibody, chains of the INN, looked up, variant L:R28N L:T30G L:L56I H:E54K H:A57N H:S58E H:L99T H:A100V, V domains shown)
VH: B1 VH with F61H
VL: B1 VL with T30G, A50G, T56I
For the molecule B17, the Kd with human α-CGRP is 4.58 nM; with α-rat CGRP, 101 nM.
